According to patent US12104181B2, “Compositions and methods for treating viral infections targeting TRIM7” (THE BOARD OF REGENTS OF THE UNIVERSITY OF TEXAS SYSTEM, priority 2021, dated 2024):

Tested on: coxsackievirus B3 (CVB3-GFP)
Assay type: cell-based
Settings: HeLa cells, replicate R1; for Percent Infected R1: GFP-positive cells within RFP-positive gate

B1: RNF2: human RING type E3 ligase expressed from lentiviral vector (protein, UniProt Q99496 2-336, looked up)
E3 ubiquitin-protein ligase …: SQAVQTNGTQPLSKTWELSLYELQRTPQEAITDGLEIVVSPRSLHSELMCPICLDMLKNTMTTKECLHRFCADCIITALRSGNKECPTCRKKLVSKRSLRPDPNFDALISKIYPSRDEYEAHQERVLARINKHNNQQALSHSIEEGLKIQAMNRLQRGKKQQIENGSGAEDNGDSSHCSNASTHSNQEAGPSNKRTKTSDDSGLELDNNNAAMAIDPVMDGASEIELVFRPHPTLMEKDDSAQTRYIKTSGNATVDHLSKYLAVRLALEELRSKGESNQMNLDTASEKQYTIYIATASGQFTVLNGSFSLELVSEKYWKVNKPMELYYAPTKEHK
Percent Infected R1: 87.4% | Z score R1: −0.02

B2: RNF11: human RING type E3 ligase expressed from lentiviral vector (protein, UniProt Q9Y3C5 2-154, looked up)
RING finger protein 11: GNCLKSPTSDDISLLHESQSDRASFGEGTEPDQEPPPPYQEQVPVPVYHPTPSQTRLATQLTEEEQIRIAQRIGLIQHLPKGVYDPGRDGSEKKIRECVICMMDFVYGDPIRFLPCMHIYHLDCIDDWLMRSFTCPSCMEPVDAALLSSYETN
Percent Infected R1: 90.7% | Z score R1: 0.03

B3: RNF113B: human RING type E3 ligase expressed from lentiviral vector (protein, UniProt Q8IZP6 1-322, looked up)
RING finger protein 113B: MAAPPSPGRTADQADQVCTFLFKKPGRKGAAGLRKRPACDPEHGESSSSGDEGDTVAQPPRVAPRPRGLHSWQKAAHGDRRGEEAAPESLDVVYRSTRSAKPVGPEDMGATADFEQDTEKEHHTPTILKCSQRVQEALRGREHDHIYRGIHSYLRYLKPKDTSMGNSSSGMARKGPIRAPGHLRATVRWDYQPDICKDYKETGFCGFGDSCKFLHDRSDYKLGWEIERELEEGRYCICEDENHEVGSEEEEIPFRCFICRQAFQNPVVTKCRHYFCESCALEHFRATPRCYICDQPTGGIFNPAKELMAKLQKLQAAEGKKR
modifications: lentiviral expression
notes: human RING type E3 ligase expressed from lentiviral vector
Percent Infected R1: 88% | Z score R1: −0.01

B4: RNF148: human RING type E3 ligase expressed from lentiviral vector (protein, UniProt Q8N7C7 35-305, looked up)
RING finger protein 148: KAIWTAHLNITFQVGNEITSELGESGVFGNHSPLERVSGVVALPEGWNQNACHPLTNFSRPKQADSWLALIERGGCTFTHKINVAAEKGANGVIIYNYQGTGSKVFPMSHQGTENIVAVMISNLKGMEILHSIQKGVYVTVIIEVGRMHMQWVSHYIMYLFTFLAATIAYFYLDCVWRLTPRVPNSFTRRRSQIKTDVKKAIDQLQLRVLKEGDEELDLNEDNCVVCFDTYKPQDVVRILTCKHFFHKACIDPWLLAHRTCPMCKCDILKT
Percent Infected R1: 82.3% | Z score R1: −0.08

B5: RNF139: human RING type E3 ligase expressed from lentiviral vector (protein, UniProt Q8WU17 2-664, looked up)
E3 ubiquitin-protein ligase …: AAVGPPQQQVRMAHQQVWAALEVALRVPCLYIIDAIFNSYPDSSQSRFCIVLQIFLRLFGVFASSIVLILSQRSLFKFYTYSSAFLLAATSVLVNYYASLHIDFYGAYNTSAFGIELLPRKGPSLWMALIVLQLTFGIGYVTLLQIHSIYSQLIILDLLVPVIGLITELPLHIRETLLFTSSLILTLNTVFVLAVKLKWFYYSTRYVYLLVRHMYRIYGLQLLMEDTWKRIRFPDILRVFWLTRVTAQATVLMYILRMANETDSFFISWDDFWDLICNLIISGCDSTLTVLGMSAVISSVAHYLGLGILAFIGSTEEDDRRLGFVAPVLFFILALQTGLSGLRPEERLIRLSRNMCLLLTAVLHFIHGMTDPVLMSLSASHVSSFRRHFPVLFVSACLFILPVLLSYVLWHHYALNTWLFAVTAFCVELCLKVIVSLTVYTLFMIDGYYNVLWEKLDDYVYYVRSTGSIIEFIFGVVMFGNGAYTMMFESGSKIRAFMMCLHAYFNIYLQAKNGWKTFMNRRTAVKKINSLPEIKGSRLQEINDVCAICYHEFTTSARITPCNHYFHALCLRKWLYIQDTCPMCHQKVYIEDDIKDNSNVSNNNGFIPPNETPEEAVREAAAESDRELNEDDSTDCDDDVQRERNGVIQHTGAAAEEFNDDTD
Percent Infected R1: 77.5% | Z score R1: −0.14

B6: RNF111: human RING type E3 ligase expressed from lentiviral vector (protein, UniProt Q6ZNA4 1-994, looked up)
E3 ubiquitin-protein ligase …: MSQWTPEYNELYTLKVDMKSEIPSDAPKTQESLKGILLHPEPIGAAKSFPAGVEMINSKVGNEFSHLCDDSQKQEKEMNGNQQEQEKSLVVRKKRKSQQAGPSYVQNCVKENQGILGLRQHLGTPSDEDNDSSFSDCLSSPSSSLHFGDSDTVTSDEDKEVSVRHSQTILNAKSRSHSARSHKWPRTETESVSGLLMKRPCLHGSSLRRLPCRKRFVKNNSSQRTQKQKERILMQRKKREVLARRKYALLPSSSSSSENDLSSESSSSSSTEGEEDLFVSASENHQNNPAVPSGSIDEDVVVIEASSTPQVTANEEINVTSTDSEVEIVTVGESYRSRSTLGHSRSHWSQGSSSHASRPQEPRNRSRISTVIQPLRQNAAEVVDLTVDEDEPTVVPTTSARMESQATSASINNSNPSTSEQASDTASAVTSSQPSTVSETSATLTSNSTTGTSIGDDSRRTTSSAVTETGPPAMPRLPSCCPQHSPCGGSSQNHHALGHPHTSCFQQHGHHFQHHHHHHHTPHPAVPVSPSFSDPACPVERPPQVQAPCGANSSSGTSYHEQQALPVDLSNSGIRSHGSGSFHGASAFDPCCPVSSSRAAIFGHQAAAAAPSQPLSSIDGYGSSMVAQPQPQPPPQPSLSSCRHYMPPPYASLTRPLHHQASACPHSHGNPPPQTQPPPQVDYVIPHPVHAFHSQISSHATSHPVAPPPPTHLASTAAPIPQHLPPTHQPISHHIPATAPPAQRLHPHEVMQRMEVQRRRMMQHPTRAHERPPPHPHRMHPNYGHGHHIHVPQTMSSHPRQAPERSAWELGIEAGVTAATYTPGALHPHLAHYHAPPRLHHLQLGALPLMVPDMAGYPHIRYISSGLDGTSFRGPFRGNFEELIHLEERLGNVNRGASQGTIERCTYPHKYKKVTTDWFSQRKLHCKQDGEEGTEEDTEEKCTICLSILEEGEDVRRLPCMHLFHQVCVDQWLITNKKCPICRVDIEAQLPSES
Percent Infected R1: 84.2% | Z score R1: −0.06

B7: RNF10: human RING type E3 ligase expressed from lentiviral vector (protein, UniProt Q8N5U6 1-811, looked up)
E3 ubiquitin-protein ligase …: MPLSSPNAAATASDMDKNSGSNSSSASSGSSKGQQPPRSASAGPAGESKPKSDGKNSSGSKRYNRKRELSYPKNESFNNQSRRSSSQKSKTFNKMPPQRGGGSSKLFSSSFNGGRRDEVAEAQRAEFSPAQFSGPKKINLNHLLNFTFEPRGQTGHFEGSGHGSWGKRNKWGHKPFNKELFLQANCQFVVSEDQDYTAHFADPDTLVNWDFVEQVRICSHEVPSCPICLYPPTAAKITRCGHIFCWACILHYLSLSEKTWSKCPICYSSVHKKDLKSVVATESHQYVVGDTITMQLMKREKGVLVALPKSKWMNVDHPIHLGDEQHSQYSKLLLASKEQVLHRVVLEEKVALEQQLAEEKHTPESCFIEAAIQELKTREEALSGLAGSRREVTGVVAALEQLVLMAPLAKESVFQPRKGVLEYLSAFDEETTEVCSLDTPSRPLALPLVEEEEAVSEPEPEGLPEACDDLELADDNLKEGTICTESSQQEPITKSGFTRLSSSPCYYFYQAEDGQHMFLHPVNVRCLVREYGSLERSPEKISATVVEIAGYSMSEDVRQRHRYLSHLPLTCEFSICELALQPPVVSKETLEMFSDDIEKRKRQRQKKAREERRRERRIEIEENKKQGKYPEVHIPLENLQQFPAFNSYTCSSDSALGPTSTEGHGALSISPLSRSPGSHADFLLTPLSPTASQGSPSFCVGSLEEDSPFPSFAQMLRVGKAKADVWPKTAPKKDENSLVPPAPVDSDGESDNSDRVPVPSFQNSFSQAIEAAFMKLDTPATSDPLSEEKGGKKRKKQKQKLLFSTSVVHTK
modifications: lentiviral expression
notes: as for B3
Percent Infected R1: 88.9% | Z score R1: 0

B8: RNFT2: human RING type E3 ligase expressed from lentiviral vector (protein, UniProt Q96EX2 1-444, looked up)
E3 ubiquitin-protein ligase …: MWLFTVNQVLRKMQRRHSSNTDNIPPERNRSQALSSEASVDEGGVFESLKAEAASPPALFSGLSGSLPTSSFPSSLVLGSSAGGGDVFIQMPASREEGGGRGEGGAYHHRQPHHHFHHGGHRGGSLLQHVGGDHRGHSEEGGDEQPGTPAPALSELKAVICWLQKGLPFILILLAKLCFQHKLGIAVCIGMASTFAYANSTLREQVSLKEKRSVLVILWILAFLAGNTLYVLYTFSSQQLYNSLIFLKPNLEMLDFFDLLWIVGIADFVLKYITIALKCLIVALPKIILAVKSKGKFYLVIEELSQLFRSLVPIQLWYKYIMGDDSSNSYFLGGVLIVLYSLCKSFDICGRVGGVRKALKLLCTSQNYGVRATGQQCTEAGDICAICQAEFREPLILLCQHVFCEECLCLWLDRERTCPLCRSVAVDTLRCWKDGATSAHFQVY
Percent Infected R1: 86.5% | Z score R1: −0.03

B9: RNF133: human RING type E3 ligase expressed from lentiviral vector (protein, UniProt Q8WVZ7 1-376, looked up)
E3 ubiquitin-protein ligase …: MHLLKVGTWRNNTASSWLMKFSVLWLVSQNCCRASVVWMAYMNISFHVGNHVLSELGETGVFGRSSTLKRVAGVIVPPEGKIQNACNPNTIFSRSKYSETWLALIERGGCTFTQKIKVATEKGASGVIIYNVPGTGNQVFPMFHQAFEDVVVVMIGNLKGTEIFHLIKKGVLITAVVEVGRKHIIWMNHYLVSFVIVTTATLAYFIFYHIHRLCLARIQNRRWQRLTTDLQNTFGQLQLRVVKEGDEEINPNGDSCVICFERYKPNDIVRILTCKHFFHKNCIDPWILPHGTCPICKCDILKVLGIQVVVENGTEPLQVLMSNELPETLSPSEEETNNEVSPAGTSDKVIHVEENPTSQNNDIQPHSVVEDVHPSP
modifications: lentiviral expression
notes: as for B3
Percent Infected R1: 94.9% | Z score R1: 0.08

B10: RNF146: human RING type E3 ligase expressed from lentiviral vector (protein, UniProt Q9NTX7 1-359, looked up)
E3 ubiquitin-protein ligase …: MMAGCGEIDHSINMLPTNRKANESCSNTAPSLTVPECAICLQTCVHPVSLPCKHVFCYLCVKGASWLGKRCALCRQEIPEDFLDKPTLLSPEELKAASRGNGEYAWYYEGRNGWWQYDERTSRELEDAFSKGKKNTEMLIAGFLYVADLENMVQYRRNEHGRRRKIKRDIIDIPKKGVAGLRLDCDANTVNLARESSADGADSVSAQSGASVQPLVSSVRPLTSVDGQLTSPATPSPDASTSLEDSFAHLQLSGDNTAERSHRGEGEEDHESPSSGRVPAPDTSIEETESDASSDSEDVSAVVAQHSLTQQRLLVSNANQTVPDRSDRSGTDRSVAGGGTVSVSVRSRRPDGQCTVTEV
Percent Infected R1: 89.7% | Z score R1: 0.01
